The target of this assay is T1, Chryseobacterium sp-62563 deamidase polypeptide (second polypeptide, deamidase domain), wildtype (Chryseobacterium sp-62563).
T1 sequence: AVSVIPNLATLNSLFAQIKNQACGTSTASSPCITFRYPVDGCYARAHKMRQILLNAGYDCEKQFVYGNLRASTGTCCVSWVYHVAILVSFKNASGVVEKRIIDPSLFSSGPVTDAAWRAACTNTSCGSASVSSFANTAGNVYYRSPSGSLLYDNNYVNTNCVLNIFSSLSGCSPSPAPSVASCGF
Put plainly: cell-based or functional assay.

B1: Chryseobacterium sp-62563 propeptide Y45S (protein)
chain: NQDPNLVAKESNETAMKDFGKTVPVGIEKEDGKFKISFMVTAQPSEIKDSKENAAYISMIKTAVENETPIHVFLKANTNEIAKVDKATDDDIRYFKSVFTKEVKEENRK
On to B1, for which the Leakage activity was 0% and the Relative activity of maturated deamidase (% initial rate) is greater than 100.

B2: Chryseobacterium sp-62563 propeptide P69W (protein)
chain: NQDPNLVAKESNETAMKDFGKTVPVGIEKEDGKFKISFMVTAQPYEIKDSKENAAYISMIKTAVENETWIHVFLKANTNEIAKVDKATDDDIRYFKSVFTKEVKEENRK
Molecule B2 showed a Leakage activity of 0% and a Relative activity of maturated deamidase (% initial rate) greater than 100.

B3: Chryseobacterium sp-62563 propeptide T88P (protein)
chain: NQDPNLVAKESNETAMKDFGKTVPVGIEKEDGKFKISFMVTAQPYEIKDSKENAAYISMIKTAVENETPIHVFLKANTNEIAKVDKAPDDDIRYFKSVFTKEVKEENRK
Take B3: the Leakage activity came to 0% and the Relative activity of maturated deamidase (% initial rate) came out at 46.

B4: Chryseobacterium sp-62563 propeptide F73D (protein)
chain: NQDPNLVAKESNETAMKDFGKTVPVGIEKEDGKFKISFMVTAQPYEIKDSKENAAYISMIKTAVENETPIHVDLKANTNEIAKVDKATDDDIRYFKSVFTKEVKEENRK
The molecule B4 showed a Leakage activity of 2% and a Relative activity of maturated deamidase (% initial rate) of 31.

B5: Chryseobacterium sp-62563 propeptide Y45T (protein)
chain: NQDPNLVAKESNETAMKDFGKTVPVGIEKEDGKFKISFMVTAQPTEIKDSKENAAYISMIKTAVENETPIHVFLKANTNEIAKVDKATDDDIRYFKSVFTKEVKEENRK
B5 had a Leakage activity of 2%, a NanoDSF thermal unfolding temperature of 73.7 ° C and a Relative activity of maturated deamidase (% initial rate) greater than 100.

B6: Chryseobacterium sp-62563 propeptide P69Y (protein)
chain: NQDPNLVAKESNETAMKDFGKTVPVGIEKEDGKFKISFMVTAQPYEIKDSKENAAYISMIKTAVENETYIHVFLKANTNEIAKVDKATDDDIRYFKSVFTKEVKEENRK
On to B6, for which the Leakage activity was determined as 0% and the Relative activity of maturated deamidase (% initial rate) is greater than 100.

B7: Chryseobacterium sp-62563 propeptide Y94I (protein)
chain: NQDPNLVAKESNETAMKDFGKTVPVGIEKEDGKFKISFMVTAQPYEIKDSKENAAYISMIKTAVENETPIHVFLKANTNEIAKVDKATDDDIRIFKSVFTKEVKEENRK
Regarding B7, the Leakage activity amounted to 0% and the Relative activity of maturated deamidase (% initial rate) was found to be 60.

B8: Chryseobacterium sp-62563 propeptide V7P (protein)
chain: NQDPNLPAKESNETAMKDFGKTVPVGIEKEDGKFKISFMVTAQPYEIKDSKENAAYISMIKTAVENETPIHVFLKANTNEIAKVDKATDDDIRYFKSVFTKEVKEENRK
As for B8, the Leakage activity worked out at 0%.

B9: Chryseobacterium sp-62563 propeptide E67P (protein)
chain: NQDPNLVAKESNETAMKDFGKTVPVGIEKEDGKFKISFMVTAQPYEIKDSKENAAYISMIKTAVENPTPIHVFLKANTNEIAKVDKATDDDIRYFKSVFTKEVKEENRK
Molecule B9 yielded a Leakage activity of 2% and a Relative activity of maturated deamidase (% initial rate) of 53.

B10: Chryseobacterium sp-62563 propeptide D49P (protein)
chain: NQDPNLVAKESNETAMKDFGKTVPVGIEKEDGKFKISFMVTAQPYEIKPSKENAAYISMIKTAVENETPIHVFLKANTNEIAKVDKATDDDIRYFKSVFTKEVKEENRK
As to B10, the Leakage activity is 0%.

B11: Chryseobacterium sp-62563 propeptide F73T (protein)
chain: NQDPNLVAKESNETAMKDFGKTVPVGIEKEDGKFKISFMVTAQPYEIKDSKENAAYISMIKTAVENETPIHVTLKANTNEIAKVDKATDDDIRYFKSVFTKEVKEENRK
On to B11, for which the Leakage activity was determined as 0% and the Relative activity of maturated deamidase (% initial rate) stood at 42.

B12: Chryseobacterium sp-62563 propeptide K86G (protein)
chain: NQDPNLVAKESNETAMKDFGKTVPVGIEKEDGKFKISFMVTAQPYEIKDSKENAAYISMIKTAVENETPIHVFLKANTNEIAKVDGATDDDIRYFKSVFTKEVKEENRK
B12 had a Leakage activity of 0% and a Relative activity of maturated deamidase (% initial rate) of 34.

B13: Chryseobacterium sp-62563 propeptide R93P (protein)
chain: NQDPNLVAKESNETAMKDFGKTVPVGIEKEDGKFKISFMVTAQPYEIKDSKENAAYISMIKTAVENETPIHVFLKANTNEIAKVDKATDDDIPYFKSVFTKEVKEENRK
As for B13, the Leakage activity came to 4% and the Relative activity of maturated deamidase (% initial rate) is greater than 100.

B14: Chryseobacterium sp-62563 propeptide L74S (protein)
chain: NQDPNLVAKESNETAMKDFGKTVPVGIEKEDGKFKISFMVTAQPYEIKDSKENAAYISMIKTAVENETPIHVFSKANTNEIAKVDKATDDDIRYFKSVFTKEVKEENRK
B14 came in with a Leakage activity of 0% and a Relative activity of maturated deamidase (% initial rate) of 40.

B15: Chryseobacterium sp-62563 propeptide A76P (protein)
chain: NQDPNLVAKESNETAMKDFGKTVPVGIEKEDGKFKISFMVTAQPYEIKDSKENAAYISMIKTAVENETPIHVFLKPNTNEIAKVDKATDDDIRYFKSVFTKEVKEENRK
With B15, the Leakage activity amounted to 3%.

B16: Chryseobacterium sp-62563 propeptide Y94A (protein)
chain: NQDPNLVAKESNETAMKDFGKTVPVGIEKEDGKFKISFMVTAQPYEIKDSKENAAYISMIKTAVENETPIHVFLKANTNEIAKVDKATDDDIRAFKSVFTKEVKEENRK
For B16, the Leakage activity is 0% and the Relative activity of maturated deamidase (% initial rate) is 72.

B17: Chryseobacterium sp-62563 propeptide V64L (protein)
chain: NQDPNLVAKESNETAMKDFGKTVPVGIEKEDGKFKISFMVTAQPYEIKDSKENAAYISMIKTALENETPIHVFLKANTNEIAKVDKATDDDIRYFKSVFTKEVKEENRK
As to B17, the Leakage activity was found to be 0% and the Relative activity of maturated deamidase (% initial rate) was determined as 49.

B18: Chryseobacterium sp-62563 propeptide E52P (protein)
chain: NQDPNLVAKESNETAMKDFGKTVPVGIEKEDGKFKISFMVTAQPYEIKDSKPNAAYISMIKTAVENETPIHVFLKANTNEIAKVDKATDDDIRYFKSVFTKEVKEENRK
Molecule B18 came in with a Leakage activity of 0%.

B19: Chryseobacterium sp-62563 propeptide Y94P (protein)
chain: NQDPNLVAKESNETAMKDFGKTVPVGIEKEDGKFKISFMVTAQPYEIKDSKENAAYISMIKTAVENETPIHVFLKANTNEIAKVDKATDDDIRPFKSVFTKEVKEENRK
Regarding B19, the Leakage activity is 3%, the NanoDSF thermal unfolding temperature turned out to be 75.2 ° C and the Relative activity of maturated deamidase (% initial rate) came to 76.

B20: Chryseobacterium sp-62563 propeptide D90P (protein)
chain: NQDPNLVAKESNETAMKDFGKTVPVGIEKEDGKFKISFMVTAQPYEIKDSKENAAYISMIKTAVENETPIHVFLKANTNEIAKVDKATDPDIRYFKSVFTKEVKEENRK
For B20, the Leakage activity was determined as 0% and the Relative activity of maturated deamidase (% initial rate) was found to be 55.

B21: Chryseobacterium sp-62563 propeptide Y94E (protein)
chain: NQDPNLVAKESNETAMKDFGKTVPVGIEKEDGKFKISFMVTAQPYEIKDSKENAAYISMIKTAVENETPIHVFLKANTNEIAKVDKATDDDIREFKSVFTKEVKEENRK
For B21, the Leakage activity is 0%.

The values above are taken from patent US20250215412A1 (NOVOZYMES A S, published 2025).
